Experimental findings from a protein production outcome set (Wang et al. 2014) are described below.

This data set in a line: label from the status in PepcDB records.
Consider “MFKEVGEPNFPKLEEEVLAFWKREKIFQKSVENRKGGPRYTVYEGPPTANGLPHVGHAQARSYKDLFPRYKTMRGYYAPRRAGWDTHGLPVELEVEKKLGLKSKREIEAYGIERFNQACRESVFTYEKEWEAFTERIAYWVDLENAYATLEPTYIESIWWSLKNLFDRGLLYRDHKVVPYCPRCGTPLSSHEVALGYKEIQDPSVYVRFPLKEPKKLGLEKASLLIWTTTPWTLPGNVAAAVHPEYTYAAFQVGDEALILEEGLGRKLLGEGTPVLKTFPGKALEGLPYTPPYPQALEKGYFVVLADYVSQEDGTGIVHQAPAFGAEDLETARVYGLPLLKTVDEEGKLLVEPFKGLYFREANRAILRDLRGRGLLFKEESYLHSYPHCWRCSTPLMYYATESWFIKNTLFKDELIRKNQEIHWVPPHIKEGRYGEWLKNLVDWALSRNRYWGTPLPIWVCQACGKEEAIGSFQELKARATKPLPEPFDPHRPYVDQVELACACGGTMRRVPYVIDVWYDSGAMPFASLHYPFEHEEVFRESFPADFIAEGIDQTRGWFNFLHQLGVMLFGSIAFKNVICHGLILYEMGQKMSKSKGNVVDPWDIIREFGADALRWYIYVSAPPEADRRFGPNLVRETVRDYFLTLWNVYSFFVTYANLDRPDLKNPPPPEKRPEMDRWLLARMQDLIQRVTEALEAYDPTTSARALRDFVVEDLSQWYVRRNRRRFWKNEDALDREAAYATLYEALVLVATLAAPFTPFLAEVLWQNLVRSVRPEAKESVHLADWPEADPALADEALVAQMRAVLKVVDLARAARAKSGVKTRTPLPLLLVTAPTALEREGLKRFAHEIAEELNVKEVRVLEPGEEILSYRVLPNLKLLGRKYGKLVPKIREALQRERERAAALALKGEAIPLEVEGEALTLLPEEVLLEAEAPKGYQALEKDGYVAALKVEVTEALRMEGLARDLIRLLQQARKDMGLKVSDRIRVGYEAEGPYLEALKRHGPWIAEEVLATAFGEGLFGGFEARVEDEEGKAVFHLARAE”, for which the protein production result is “not failed”.

For “MIEIKTLTNNDFNEYKRLVSTVNEEFTQDSHYSQTMTDTLIHDILNQGSPKCIVFGCYENETLIATAALEQIRYVGKEHKSLIKYNFVTNNDKSINSELINFIINYARQNNYESLLTSIVSNNIGAKVFYSALGFDILGFEKNAIKIGNTYFDEHWLFYDLINK”, the protein production entry is listed as “failed”.

“MGHHHHHHSHMPVTEKDLAEDAPWKKIQQNTFTRWCNEHLKCVNKRIGNLQTDLSDGLRLIALLEVLSQKRMYRKYHQRPTFRQMQLENVSVALEFLDRESIKLVSIDSKAIVDGNLKLILGLVWTLILHYSISMPVWEDEGDDDAKKQTPKQRLLGWIQNKIPYLPITNFNQNWQDGKALGALVDSCAPGLCPDWESWDPQKPVDNAREAMQQADDWLGVPQVITPEEIIHPDVDEHSVMTYLSQFPKAKLKPGAPLKPKL”: the protein production result is “not failed”.

As to “AGQVVHTETTEVVLTADPVTGFGIQLQGSVFATETLSSPPLISYIEADSPAERCGVLQIGDRVMAINGIPTEDSTFEEANQLLRDSSITSKVTLEIEFDVAESVIPSSG”, the protein production result was “not failed”.

As to “MNSNRSLLVMGLLLVSFLIFTQWQQDFNPEIQAQKQAQQQSRDVPHATNTANAITEHMTKGKTITVESDVLRLVIDTLGGDVIESDLLAHKASLDSTDPLKLLTTEGLIYTAQSGLVGKNGIDTHIGRAPYQVTQDHFTLAKGQNEIVVPMTFEQDGVMYTKTFTLKRGSYDVAVSFDIQNNSANTIEVQPYGQIKHSLLDSSGNLAMPTYTGGAYSSSETNYKKYSFDEMTKANLNIDTKGGWVALLQHYFVSAWVPNQDASNTLYSRTHNGVATIGYRGPITTVKPNTKTTITSQLWTGPKDQKEMAQAATHLELTVDYGWAWFIAKPLFWLLIFIHSIIGNWGLAIMGVTLVVKSLLYPLTKAQYTSMAKMRMLQPKLQELRERYGDDRQQMSQEMMKLYKQEKVNPMGGCLPLILQMPIFIALYWTFMEAVELRHAPFFGWIQDLSAQDPYYIFPVLMGLSMFLLQKMSPTAVADPTQLKVMTFMPVIFTVFFLWFPSGLVLYWLTSNCITIVQQWLIYRNLEKKGLHTRKK”, the protein production entry is on record as “failed”.

For “MSITRRVRLSVDTCCYEAEIAGILRPQLLKGRMSVREEFDAWAAEGKDRGMEDRHWHTAKHVLARMPVEPGDTVLDLGTGSGYALRALRDTNDAGPCYGLDGSPEMLRNAREYTDDDGIGFLRGDFDALPFATDSIDHVFSMEAFYYASDPPHTLEEIARVLRPGGTANIAVNYYEENVHSHEWQEFIDIEMTRWSADEYREAFREAGLAVAAQDTIPDREVEIPPADTFPTDEFETREAMVERYRELGTLLTVGVATE”, the protein production result was “failed”.

For the sequence “MSLDQIKIAYIGGGSQGWARSLMSDLSIDERMSGTVALYDLDFEAAQKNEVIGNHSGNGRWRYEAVSTLKKALSAADIVIISILPGSLDDMEVDVHLPERCGIYQSVGDTVGPGGIIRGLRAVPIFAEIARAIRDYAPESWVINYTNPMSVCTRVLYKVFPGIKAIGCCHEVFGTQKLLAEMVTERLGIEVPRREDIRVNVLGINHFTWITKASYRHIDLLPIFREFSAHYGESGYELEGECWRDSVFCSAHRVAFDLFETYGAIPAAGDRHLAEFLPGPYLKQPEVWKFHLTPISFRKQDRAEKRQETERLIVQQRGVAEKASGEEGVNIIAALLGLGELVTNVNMPNQGQVLNLPIQAIVETNAFITRNRVQPILSGALPKGVEMLAARHISNQEAVADAGLTKDTGLAFQAFLNDPLVQIDRSDAEQLFNDMLQCIMQSEGHHHHHH”, the protein production result is “not failed”.

As for “MTYLETAAQFYSEVAQTPQVGLCCVQSTPLQLPGLKIPLPMQEMNYGCGTTVHPTELGKQPTVLYVGVGGGLEALQFAYFSRRPGAVIAVEPVAAMREAAARNLEMALTDNPWFDSSFVEIREGDAFNLPVADGSVDIVAQNCLFNIFEPEDLTRALKEAYRVLKPGGRLQMSDPIATSPVPAHLQQDERLRAMCLSGALTYEEYTQRIIDAGFGQIEIRARRPYRLLDSQTYNLETHLLLESLDSVSFKVPMPEDGACIFTGRTAIYAGCDAFFDDKAGHILQRGIPATVCDKTAAKLATVKPKEVIITDSTWHYNGGGCCLEHHHHHH”, the protein production entry is recorded as “not failed”.

For the sequence “MKGGLYMKLTKKQLKEYIEDYKKSDDILINLYIETYEFYCRLRDELKNSDLMIEHTNKAGASNIVKNPLSIELTKTVQTLNNLLKSMGLTAAQRKKIVQEEGGFGDY”, the protein production entry was “failed”.

Turning to “MDRLSDFERLTAEIKSLKESLKEKIDKVLSRSVKEASETSEEKKEQSEIAEEGNEDGDNVLVSSLEDEIDSKEEEVLAASCRLLNMFRELDCTFDGPERRMGRLNLNEITEACSRHIVTAMETEQETLNRAISISNAWKHQVSALFNGGIEGEQIKKDLQRLKASSGDEVYWLIRKAFREARVALRTNVYMKPWNLEERREATLMELLGPLPEIARRRLQGRPRRDDCC”, the protein production entry was “failed”.

In the case of “MISGFESIQLTTLILIVVAGFAAGWVDAVVGGGGLIQLPALLLVPGITPVQALATNKMGSIFGTTTSAVTYYRRVGPDLKTAVPMAVIALAGSFGGAILAASLPASVFKPIIVLALIAVAIFTALRPGAGELTALRHDGHKHYVVACLIGAVIGFYDGLIGPGTGSFLVIALVSAMGYAFLEASAKAKIVNMATNAGALIFFLPHGSLLWGVGLILGLANMAGGYLGARTAVARGSKFVRLVFLMVVAALIIKLGMDVWNENFAA”, the protein production entry is “failed”.

Turning to “MKHYFSCLKGDTIKAIFLVCLAVGVVGMSYGSLAMAYGFPLWVPFVLSIFVLAGASEFMFIGIVASGGNPLAAAAAGLLVNARHVPFGVTVRDLVGTRAASFFGCHIMNDESVVFGLSQKTPEQRKAAYWLCGLGVALFWPIGTLIGAGVGKLLPAPETIGLDAVFPAILLALVIPAFKNRTTLIRGCSGAALSLAAVPFVAAGLPVLLSLLGLLARKK”, the protein production result is “failed”.

With “MRVDLNSDLGESFGRYKLGLDEEVMKYITSANVACGWHAGDPLVMRKTVRLAKENDVQVGAHPGYPDLMGFGRRYMKLTPEEARNYILYQVGALYAFAKAEGLELQHVKPHGALYNAMVKEEDLARAVIEGILDFDKDLILVTLSNSRVADIAEEMGLKVAHEVFADRAYNPDGTLVPRGRPGAVIEDKEEIAERVISMVKDGGIRAINGEWVDLKVDTICVHGDNPKAVEITSYIRKVLEEEGVKIVPMKEFIR”, the protein production entry was “not failed”.

Consider “MSGPGSDPVFAALTRPQMVAGVTYSYAVFNLIVTMEAFLISKSFWALLIAPLVHAVGYLGCLNEPRFFDLWITKVSRCPNIRNRGFWQANSYRP”, for which the protein production entry is “failed”.

Turning to “MKTITQELKQYMTHLFQLSNNEAWECEALEEAAENILPERFINDSPLVQLTLETYTYYNDELHELSIYPFLMYANNQLISIGYLDHFDMDFLYLTDTQNIIIDERHLLKQGGQDHELEHHHHHH”, the protein production entry is reported as “not failed”.

For “MLEAEVVALKDLIEVAGAVVSTLDLDTVLRHILTSAMRFAETPAGSIALYDGYRNDLTLHAHEGLTPEFVKTERWSVQPGGLTEQVLTRGEILFVNDTADTSFFHNPTALNEGIRSLICVPLMMQNRIVGILYLDDFVPRDFDKERMKLLSVLASFAAMAIDNAQLHARTRLMAITDSLTGLYNHRYFQQIFSRELNRAKRYEKPLAIIMLDVDDFKRFNDTYGHPHGDKVLAAMGDFLGEALRSSDFAFRYGGEEFIVLLPETEFDSALQVAERLRELVERRSLDVLKGLAPQGVTVSVGVASFPRDGESRGDMLKRVDDLLYRAKEFGKNRVYSRREDEP”, the protein production entry is “failed”.

For the sequence “MRAIAIVLARSSSKRIKNKNIIDFFNKPMLAYPIEVALNSKLFEKVFISSDSMEYVNLAKNYGASFLNLRPKILADDRATTLEVMAYHMEELELKDEDIACCLYGASALLQEKHLKNAFETLNKNQNTDYVFTCSPFSASPYRSFSLENGVQMAFKEHSNTRTQDLKTLYHDAGLLYMGKAQAFKEMRPIFSQNSIALELSPLEVQDIAHFRRFRISQAQIQPFEKRMPVKILCDCFLTSGLGHVRRCEKILSFIEKLGVEASLYLHKQNNISAFLEGVGGNDFLITDSYCLNSKDFYLLKEKAKSLMVIEDTEHAKGFYPKNTKILNFTLNALKHYHHLSKDYQYYLGVGFYPVDARFIYDRPINTENKEVLITLGGSEQKTLKEIVKILENKNVNLHIISPYTPKNPPKNTHYYSPLNPLEFSSLMKSCACAISAAGQTLYELALSQTPSLILPIASNQIIQSKEFESLGIFKQTSLKTLAKDFENLQIQKNQAWAKNLVFGDKLEGALREFLEI”, the protein production entry is reported as “failed”.

Turning to “MPGPIMQEVAQYLASLSGKAVVINIFAGHADRSLSQTQLAELLDKLLARHPGSAVILLDHRREIRIPLPPEVVINPFNTLHHAMALIAQAELIISPDTSVVHMAAAWNKPLIAVYKDVLLNNRLWAPGYDNARQIIVKCGKVHQHRGLVDRIIAALPETLLEHHHHHH”, the protein production entry was “failed”.

As to “MRRRKAPVREVLGDPVYGNKVVTKFINKMMFDGKKSVAEKIIYKAFNKIEEKSGEKGIEVFEKALERVRPLVEVRSRRVGGATYQVPVEVRASRQQSLSIRWILEATRKRNERMMVDRLANELMDAASDKGAAFKKKEDVHKMAEANKAFAHYRW”, the protein production result is given as “failed”.

Regarding “SNMQLDTLRRIVQEINSSVSLHDSLDIMVNQVADAMKVDVCSIYLLDERNQRYLLMASKGLNPESVGHVSLQLSEGLVGLVGQREEIVNLENASKHERFAYLPETGEEIYNSFLGVPVMYRRKVMGVLVVQNKQPQDFSEAAESFLVTLCAQLSGVIAHAHAVGNIDVFRKPSNGA”, the protein production entry is listed as “not failed”.

In the case of “MSSNMQQTINVWDPLIRIFHWSLVGFFTLAYLTEGEDEWMNIHSYAGYSILTLLVFRLLWGVIGTHHARFNHFITRPSIAWTYLKQLFSGNAKDYIGHNPAGALMIIALITSIAVAGFSGMALYATDSQGPLATSFFATWPEGALKEVHEFFANFSLFLIATHIGGVIVSSLLHKENLIRAMVTGKKQRPLIQQDERQ”, the protein production entry is “failed”.
